{
  "source": "the DeepSol protein solubility set",
  "data": [
    {"assay": "soluble on expression in E. coli; label from the status in PepcDB or PDB records", "values": [
      {"sequence": "MIIEERKNHELNLESIDRDLRMENVRQSAEKLGWEHFARSVRRNLLEKRQTLDARTRLDVLGSLVFMKEHLPIDNDATIARKVQQLSEGLGEHCVFSTQNSGFSIRNPDVTIDIGVAEDQISTCKIGYFGQPLTDAPGALALMKNGEFSKLRDSITAILSSLPKEITLSEKNACKEAFRALDQLLIRDAADSSFTAINTGKYGFYAPRNELRSGRIYYVAEPVLIRLAEKEGKTKADASYLDLLPYIEISFFKHDKPSKLPVFTQTGEWSTFNDANVCICVRFNQGFLLSQQTIRKLSHIVPKSPLVRNYVNFYRYMTGRVGVKSNLKLLTQFPDEGDIQQQYQVDSKMLTKEDDVVAMEMYLSDFRDLSKLIETLRSEWKHASLWESILAICESSKGEQKEVNAVDMQLVLRRTEFFLQFDTDYGSMTMQIFEKSPSNYVVKTTSQITGESPSLDFDKMLTEKLNSTWSIPATLTFAITDLKCRINSVLNCVISFDSSSSSDKQHQNYWSISNNNTQLMQSAAQKSAAKCTKKKVTVLEVGPAIEPTQLVYTRENDEEFQGSLLSSFGEVDDYYVKTSTIGRTRPQPRPKREPNQLTSMDMMSAELDKSRHTMEGSMRDAQTSSFLDAARVRMKQSIGAAHAVGLASHQPPASPVAAAAAAPGGPMRHNSYPSGFEPPPSVAPYDFPADPSKKQRKQRAKKQPGEEPPAGRGKGGKKGRGAGAVGAAAAGGRKSAGGAGENPFGMDPMRPPMLQRSSSEQHNPNPHQMSQYQMQQYQQNQQFRMHQMQQQQQQQFQMQSPKNPLVPAYTDEDSDEECDPPPPPKPQVSTSSRMSSVPSHPPPPPQQLGNPMVGYPGMPLQSPNHLPLTPSPLSAPPKPFSPEQQHHFGMKMRETSYWKELERLETKPDVEKLKQQLSSSSSSSQAEASDPPSTSTEAQDPPKPSSSSAPPPPKKKLGLEAAISKIRGQQEQALQKQLQQQESVESELATPHPGSSGAPPLAPHQVNRARNLNDIFDDEADDSSPTADIKPSLQALQKPTDTSSQSTSSEPPPKKEPADEQPEREKEKLILKIPKMLKPVVDDRREDRKERDRDRDRDRDRDEDREKVRDKEDKAQREKDKKEKERERRRQRDRDRTEQKKSDREKEPSKKRKLEKKDEKEKDRREPERKKGKSDGKEYSKASTTSLIPTLSLKNFRIPKKDTVEEEKKDVKEEAPGPSSSTESKKEPPSAAPITRKESTTAPVAPAVQQQQQRKESFTALPSLPEQQQHHREPLLKKKPPLQPPPPPQMTGPPIGIYPGPPAPGNLPGSSRPSGNRKQPLPPPPPMIRGPPPDQMYRDRSGGGGGSMRGGFPPASHYHGGTSGVNKQVASYAQGLPPGMGPPVVKPHGNNYQASQWVRPPTHRDSSHSYHGMPSLGPPQLQREPPAPPPPQMIPLPKDPPVLREHPREHRAHRGGADDDGPDSPEEGTLRIDDE", "soluble on expression in E. coli": "not soluble"},
      {"sequence": "MIIEFLKKLLAGTPETVPAKETKRMTKVLVLYYSSYGHIETMAYAVAEGVESTGAEAVVKRVPELVPEEVAKSSHFKMDQPAPVATVDELAEYDAIIVGAGTRFGTVASQMRNFWDQTGGLWFSGKLVGKVGSAFTSSATQHGGQESTILGFIPTFLHHGMAVVGLPYAFQGQMGVDEIKGGSPYGASTITDGDGSRQPSAIELDAARYQGAHVAKLAAKLSA", "soluble on expression in E. coli": "not soluble"},
      {"sequence": "MIIIMAGGKSSRMGREKPVLKIAGKEMLLWVYEQAEAVGEVLVALSRHTPRTRELCLREGIEFVDTPGRGYVKDVQWLLREFGPFISLSSDIPFVKSSDIYSLLKEFDGKVSLTGVLPLEVVPKDLTPYSYMGYAIVGINGVAKEGEKFFVFSNPLLALNVNTPRELELAKRVAEIIRVRGIR", "soluble on expression in E. coli": "soluble"},
      {"sequence": "MIILNIPLFKGLTLEQIEDMKNKHCMTEKKYKKNSFIFRAGDIVHEIGIVLEGSINIEMIDMWDNKSILSNIDVGQIFAESYALCNEPMMVDAVATKDSTILMLNMRQIFAPINNSASWYNTFTYNLLVLSTRKNLTLSTRIFCTSSKSVRGRVLTYLSNQSIKHNNTEFQIPFNRQQMADYLNLDRSALSKELGKMQDEGIITFNKNRFKLNINYDSEF", "soluble on expression in E. coli": "not soluble"},
      {"sequence": "MIINNVKLVLENEVVNGSLEMQDGEIRAFAESQSRLPEAMDGEGGWLLPGLIELHTDNLDKFFTPRPKVDWPAHSAMSSHDALMVASGITTVLDAVAIGDVRDGGDRLENLEKMINAIEETQKRGVNRAEHRLHLRCELPHNTTLPLFEKLVQREPVTLVSLMDHSPGQRQFANREKYREYYQGKYSLTDAQMQQYEEEQLALAARWSQPNRESIAAMCRARQIALASHDDATHAHVAESHQLGSVIAEFPTTFEAAEASRKHGMNVLMGAPNIVRGGSHSGNVAASELAQLGLLDILSSDYYPASLLDAAFRVADDQSNRFTLPQAVKLVTKNPAQALNLQDRGVIGEGKRADLVLAHRKGNHIHIDHVWRQGKRVF", "soluble on expression in E. coli": "not soluble"},
      {"sequence": "MIIPLVFLIGFAAAGNFGSSSSESCEDGNGGGRPRPGNGGGRPPGNGNGNGNGGGRPTNGGCDAGWRRFNRPNGGWCVRVFGARMTQADAQIQCQSYGATLSSLQNMEEALQINNMALSVIKANTGSVWIGAKRTTACLKQWLWTNGCGRQNSFAWTDGSATGVAGFVWDNLQPDNDELKQPCAVMLAARAAVTWGGKFWQPAMLDDNNCMFDLEGKHPRSVYGYVCGKNSRA", "soluble on expression in E. coli": "not soluble"},
      {"sequence": "MIKHLFIDLDDTLWDTYHNNKSSLEELYHTHAWDRYFDSFETFFSIYLPHNEALWSEYRYGQIDKPTLTLERFRRPFTGYLTLSDEQILAWNAEFLSITGRKTRLCPHALEVMEYLHRYYKVYILSNGFREIQHAKLTNSGLAPYIDRVILSEDAGINKPNKKIFDFALVKAKARKTESIMIGDSWEADIVGAANAGLASVWYNPNRHILPDDGVRAPMHIISSLSELMQIF", "soluble on expression in E. coli": "not soluble"},
      {"sequence": "MIKIAIPTSKGGLEDKVHESLVRAETFTLVEVKDGKIERIEVVENPHKNEPYGAGSKVAIFLVNNGVNILLTPMDCPKGKAILEAGGVKIIKVKQGKSVKEVIEAFQSSSSGYSLQ", "soluble on expression in E. coli": "soluble"},
      {"sequence": "MIKIPRGTQDILPEDSKKWRYIENQLDELMTFYNYKEIRTPIFESTDLFARGVGDSTDVVQKEMYTFKDKGDRSITLRPEGTAAVVRSYIEHKMQGNPNQPIKLYYNGPMFRYERKQKGRYRQFNQFGVEAIGAENPSVDAEVLAMVMHIYQSFGLKHLKLVINSVGDMASRKEYNEALVKHFEPVIHEFCSDCQSRLHTDPMRILDCKVDRDKEAIKTAPRITDFLNEESKAYYEQVKAYLDDLGIPYTEDPNLVRGLDYYTHTAFELMMDNPNYDGAITTLCGGGRYNGLLELLDGPSETGIGFALSIERLLLALEEEGIELDIEENLDLFIVTMGDQADRYAVKLLNHLRHNGIKADKDYLQRKIKGQMKQADRLGAKFTIVIGDQELENNKIDVKNMTTGESETIELDALVEYFKK", "soluble on expression in E. coli": "soluble"},
      {"sequence": "MIKLDMTMLDSFKEDPNLRKLLFSGHFGLEKENIRVTSDGKLALTPHPAIFGPKEDNPYIKTDFSESQIEMITPVTDSIDSVYEWLENLHNIVSLRSENELLWPSSNPPILPAEEDIPIAEYKTPDSPDRKYREHLAKGYGKKIQLLSGIHYNFSFPEALIDGLYANISLPEESKQDFKNRLYLKVAKYFMKNRWLLIYLTGASPVYLADFSKTKHEESLPDGSSALRDGISLRNSNAGYKNKEALFVDYNSFDAYISSISNYIEAGKIESMREFYNPIRLKNAHTDQTVESLAEHGVEYLEIRSIDLNPLEPNGISKDELDFIHLFLIKGLLSEDRELCANNQQLADENENNIALNGLAQPSIKNCDNEDIPLADAGLLELDKMSDFIKSLRPEDTKLRAIIEKQKERLLHPEKTIAAQVKQQVTKEGYVDFHLNQAKTYMEETEALAYKLIGAEDMELSTQIIWKDAIARGIKVDVLDRAENFLRFQKGDHIEYVKQASKTSKDNYVSVLMMENKVVTKLVLAEHDIRVPFGDSFSDQALALEAFSLFEDKQIVVKPKSTNYGWGISIFKNKFTLEDYQEALNIAFSYDSSVIIEEFIPGDEFRFLVINDKVEAVLKRVPANVTGDGIHTVRELVEEKNTDPLRGTDHLKPLEKIRTGPEETLMLSMQNLSWDSIPKAEEIIYLRENSNVSTGGDSIDYTEEMDDYFKEIAIRATQVLDAKICGVDIIVPRETIDRDKHAIIELNFNPAMHMHCFPYQGEQKKIGDKILDFLFD", "soluble on expression in E. coli": "soluble"},
      {"sequence": "MIKLTEYIYLASEQPLSTGSITLNGLSKPTGNLLNKAFFFFINDFEGDPPGKFSYSNYLKTLNYQVCSMCSLPSDNQNIETPSAIALLGYIRNHFKNTCTTKLYILSALNGFENKPISKTVTRKLSDLSYKDLYYQEMKLLKIIR", "soluble on expression in E. coli": "not soluble"},
      {"sequence": "MIKQVIQQLRVPDAGIENLQERRYWLQCERAYTYQPIYQTDGRLMAVELLTVVTHPDNPSRRIAPDRYFAELAVRHRIDVVKEQLHQLEQKADFFTRHHLLASVNVDGPTLIAMRRQPDILAAMERLPWLRFELVEHIRLPKDSSFASMCEFGPLWLDDFGTGMANFSALSEVRYDYIKVARELFVMLRQSPEGRNLFTLLLQLMNRYCRGVIVEGVETLEEWRDVQRSPAFAAQGYFLSRPVPLISLEEVILTL", "soluble on expression in E. coli": "not soluble"},
      {"sequence": "MIKTRDQSIFDEMFKRIQSLGFKVYDYKPMTEVPYPFVEMESTDAEYIPNKDDIKGSVELMLSVWGVQKKRKQVSDMASAIFSQALTVESSDVFRWSLNTRQSSIQMLDDTTTVTPLKRAIVTLRFNLR", "soluble on expression in E. coli": "not soluble"},
      {"sequence": "MIKVLLLDVDGTLLSFETHKVSQSSIDALKKVHDSGIKIVIATGRAASDLHEIDAVPYDGVIALNGAECVLRDGSVIRKVAIPAQDFRKSMELAREFDFAVALELNEGVFVNRLTPTVEQIAGIVEHPVPPVVDIEEMFERKECCQLCFYFDEEAEQKVMPLLSGLSATRWHPLFADVNVAGTSKATGLSLFADYYRVKVSEIMACGDGGNDIPMLKAAGIGVAMGNASEKVQSVADFVTDTVDNSGLYKALKHFGVI", "soluble on expression in E. coli": "not soluble"},
      {"sequence": "MILAQKQKQVIRLNLISTWRKLISSTKIPNWLSQTKIQSKYQTRGIYPGSFFQKTIFRKDGSMSVQRTLQKYMDDWKRISHFDFCLLQEDNSILVTTCDRRLPAESKLEEFRNSTALCLSNATCCLYKITEKNEQLLLIVWGSEDSVSTIGELAVCQIESILESYAEKNDKNAFMQKLLLGDYTDVEAFNRARKLHISSSARRAVFLVETRQSKDEHALATIKNIFSARTHDFITSIDNRGIIVVRELTSTETYDDLENIAHMLVDMLGTEAMTQAWVAYSNTANDLKDLSNAYKEARTALEIGKIFYAERNVFGYRTLGIGRLLYQLPVSICEMFIQEIFGDESLDSIDGETLAIIRTFFENNLNLSETSRQLYVHRNTLVYRFEKIQKRFGLDLRTFEDAMTFKLAMLVSRYLRYQNRT", "soluble on expression in E. coli": "not soluble"},
      {"sequence": "MILDADYITEDGKPVIRVFKKEKGEFKIDYDRDFEPYIYALLKDDSAIEDIKKITAERHGTTVRVTRAERVKKKFLGRPVEVWKLYFTHPQDVPAIRDKIREHPAVVDIYEYDIPFAKRYLIDRGLIPMEGDEELRMLAFDIETLYHEGEEFGEGPILMISYADEEGARVITWKNIDLPYVESVSTEKEMIKRFLKVIQEKDPDVLITYNGDNFDFAYLKKRSEMLGVKFILGRDGSEPKIQRMGDRFAVEVKGRIHFDLYPVIRRTINLPTYTLETVYEPVFGQPKEKVYAEEIARAWESGEGLERVARYSMEDAKATYELGKEFFPMEAQLSRLVGQSLWDVSRSSTGNLVEWFLLRKAYERNDVAPNKPDERELARRTESYAGGYVKEPEKGLWENIVYLDYKSLYPSIIITHNVSPDTLNREGCREYDVAPQVGHRFCKDFPGFIPSLLGDLLEERQKVKKKMKATVDPIERKLLDYRQRAIKILANSYYGYYAYANARWYCRECAESVTAWGRQYIETTMREIEEKFGFKVLYADTDGFFATIPGADAETVKNKAKEFLNYINPRLPGLLELEYEGFYRRGFFVTKKKYAVIDEEDKITTRGLEIVRRDWSEIAKETQARVLEAILKHGDVEEAVRIVKEVTEKLSRHEVPPEKLVIYEQITRDLRSYRATGPHVAVAKRLAARGIKIRPGTVISYIVLKGPGRVGDRAIPFDEFDPAKHRYDAEYYIENQVLPAVERILRAFGYRKEDLRYQKTKQAGLGAWLKPKT", "soluble on expression in E. coli": "soluble"}
    ]}
  ]
}
